# Measured values reported in patent EP3024460B1 (Immunomedics, Inc., dated 2020).
# T1: CD74 (human, UniProt P04233 1-296)
# T1 construct: whole, on cells; Endogenous antigen of human tumor cell lines; measured on the surface or, after permeabilization, surface and cytoplasmic; also called invariant chain; Ii
# T1 sequence (looked up): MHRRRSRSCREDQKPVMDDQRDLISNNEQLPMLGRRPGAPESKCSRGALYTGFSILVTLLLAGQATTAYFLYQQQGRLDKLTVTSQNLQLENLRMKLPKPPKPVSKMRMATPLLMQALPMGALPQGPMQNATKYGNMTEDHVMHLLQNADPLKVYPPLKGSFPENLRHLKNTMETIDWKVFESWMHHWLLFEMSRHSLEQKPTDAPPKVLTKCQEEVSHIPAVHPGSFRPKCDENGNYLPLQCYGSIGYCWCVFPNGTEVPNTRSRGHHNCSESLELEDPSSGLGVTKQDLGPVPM
# B1: hRS7-CL2A-SN-38 (antibody, INN chains, looked up, V domains shown, part only)
# VH: QVQLQQSGSELKKPGASVKVSCKASGYTFTNYGMNWVKQAPGQGLKWMGWINTYTGEPTYTDDFKGRFAFSLDTSVSTAYLQISSLKADDTAVYFCARGGFGSSYWYFDVWGQGSLVTVSS
# VL: DIQLTQSPSSLSASVGDRVSITCKASQDVSIAVAWYQQKPGKAPKLLIYSASYRYTGVPDRFSGSGSGTDFTLTISSLQPEDFAVYYCQQHYITPLTFGAGTKVEIK
# modifications: SN-38 via CL2A linker (sacituzumab govitecan)
# B2: hRS7-CL2-SN-38 (antibody, INN chains, looked up, V domains shown, part only)
# VH: B1 VH
# VL: B1 VL
# modifications: SN-38 via CL2 linker
# B3: Humanized RS7 IgG (antibody, INN chains, looked up, V domains shown, part only)
# VH: B1 VH
# VL: B1 VL
# modifications: IgG1
# B4: Milatuzumab (antibody, V domains shown)
# VH: QVQLQQSGSELKKPGASVKVSCKASGYTFTNYGVNWIKQAPGQGLQWMGWINPNTGEPTFDDDFKGRFAFSLDTSVSTAYLQISSLKADDTAVYFCSRSRGKNEAWFAYWGQGTLVTVSS
# VL: DIQLTQSPLSLPVTLGQPASISCRSSQSLVHRNGNTYLHWFQQRPGQSPRLLIYTVSNRFSGVPDRFSGSGSGTDFTLKISRVEAEDVGVYFCSQSSHVPPTFGAGTRLEIK
# Tests used:
# CD74 [1] = target: T1, CD74; assay: cell-based or functional assay
# CD74 [2] = target: T1, CD74; assay: cell binding to antigen-positive cells (cell line not stated)
# CD22 (human) = CD22 (human) (UniProt P20273); assay: cell-based or functional assay
# [3] = target: Human trophoblast cell-surface antigen (TROP-2) (human) (UniProt P09758); assay: cell binding assay on TROP-2-expressing cells
# [4] = target: Human trophoblast cell-surface antigen (TROP-2) (human) (UniProt P09758); assay: cell-based or functional assay
# [5] = target: Human trophoblast cell-surface antigen (TROP-2) (human) (UniProt P09758); assay: FACS on Calu-3 cells
# [6] = target: Human trophoblast cell-surface antigen (TROP-2) (human) (UniProt P09758); assay: FACS on Capan-1 cells; background 5.0
# [7] = target: Human trophoblast cell-surface antigen (TROP-2) (human) (UniProt P09758); assay: FACS on BxPC-3 cells
# [8] = target: Human trophoblast cell-surface antigen (TROP-2) (human) (UniProt P09758); assay: FACS on Calu-3 cells; background 4.7
# [9] = target: Human trophoblast cell-surface antigen (TROP-2) (human) (UniProt P09758); assay: FACS on PC-3 cells
# [10] = target: Human trophoblast cell-surface antigen (TROP-2) (human) (UniProt P09758); assay: FACS on COLO 205 cells; background 4.5
# [11] = target: Human trophoblast cell-surface antigen (TROP-2) (human) (UniProt P09758); assay: FACS on Capan-1 cells
# [12] = target: Human trophoblast cell-surface antigen (TROP-2) (human) (UniProt P09758); assay: FACS on SK-MES-1 cells; background 3.5
# [13] = target: Human trophoblast cell-surface antigen (TROP-2) (human) (UniProt P09758); assay: FACS on PC-3 cells; background 5.5
# [14] = target: Human trophoblast cell-surface antigen (TROP-2) (human) (UniProt P09758); assay: FACS on BxPC-3 cells; background 3.1
# [15] = target: Human trophoblast cell-surface antigen (TROP-2) (human) (UniProt P09758); assay: FACS on SK-MES-1 cells
# [16] = target: Human trophoblast cell-surface antigen (TROP-2) (human) (UniProt P09758); assay: flow cytometry, surface of NCI-N87 cells
# [17] = target: Human trophoblast cell-surface antigen (TROP-2) (human) (UniProt P09758); assay: flow cytometry, surface of Capan-1 cells
# [18] = target: Human trophoblast cell-surface antigen (TROP-2) (human) (UniProt P09758); assay: FACS on COLO 205 cells
# CD74 [19] = target: T1, CD74; assay: flow cytometry, surface and cytoplasmic CD74 in permeabilized NCI-N87 cells
# CD74 [20] = target: T1, CD74; assay: flow cytometry, surface and cytoplasmic CD74 in permeabilized Raji cells
# CD74 [21] = target: T1, CD74; assay: flow cytometry, surface and cytoplasmic CD74 in permeabilized Hs746T cells
# CD74 [22] = target: T1, CD74; assay: flow cytometry, surface CD74 on HuH-7 cells
# CD74 [23] = target: T1, CD74; assay: flow cytometry, surface and cytoplasmic CD74 in permeabilized Capan-1 cells
# CD74 [24] = target: T1, CD74; assay: flow cytometry, surface and cytoplasmic CD74 in permeabilized A-375 cells
# CD74 [25] = target: T1, CD74; assay: flow cytometry, surface CD74 on Raji cells
# CD74 [26] = target: T1, CD74; assay: flow cytometry, surface CD74 on Hs746T cells
# CD74 [27] = target: T1, CD74; assay: flow cytometry, surface and cytoplasmic CD74 in permeabilized Hep-G2 cells
# CD74 [28] = target: T1, CD74; assay: flow cytometry, surface CD74 on Hep-G2 cells
# CD74 [29] = target: T1, CD74; assay: flow cytometry, surface CD74 on A-375 cells
# CD74 [30] = target: T1, CD74; assay: flow cytometry, surface and cytoplasmic CD74 in permeabilized HuH-7 cells
# CD74 [31] = target: T1, CD74; assay: flow cytometry, surface CD74 on Capan-1 cells
# CD74 [32] = target: T1, CD74; assay: flow cytometry, surface CD74 on NCI-N87 cells
# Sequence of Human trophoblast cell-surface antigen (TROP-2) (human) (P09758 27-323): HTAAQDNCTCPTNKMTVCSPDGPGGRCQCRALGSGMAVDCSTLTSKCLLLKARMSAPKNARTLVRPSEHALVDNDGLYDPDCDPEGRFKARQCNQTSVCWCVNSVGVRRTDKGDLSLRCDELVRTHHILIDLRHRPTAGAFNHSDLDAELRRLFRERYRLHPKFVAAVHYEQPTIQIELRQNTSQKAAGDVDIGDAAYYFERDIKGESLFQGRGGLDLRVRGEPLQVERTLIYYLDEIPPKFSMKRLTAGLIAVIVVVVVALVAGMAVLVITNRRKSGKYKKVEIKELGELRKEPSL
molecule,measurement,setting,value
milatuzumab-CL2E-SN-38 (antibody),"in vitro cytotoxicity (MTS assay), potency against free SN-38 in 4 solid tumor cell lines (fold lower potency than free SN-38)",CD74 [1],7 to 16
same,Kd,CD74 [2],0.8 nM
milatuzumab-CL2A-SN-38 (antibody),Kd,CD74 [2],0.59 nM
Emab-CL2E-SN-38 (antibody),"in vitro cytotoxicity (MTS assay), potency against the nonbinding control conjugate",CD22 (human),2 fold
B1,Kd,[3],1.2 nM
same,"ADC/free SN-38 ratio (IC50, in vitro cytotoxicity), Calu-3",[4],1.39
same,"ADC/free SN-38 ratio (IC50, in vitro cytotoxicity), SK-MES-1",[4],2.69
B2,Kd,[3],1.2 nM
B3,Percent positive,[5],99.6%
same,Median fluorescence,[6],100
same,Percent positive,[7],98.3%
same,Median fluorescence,[8],282
same,Percent positive,[9],73.6%
same,Median fluorescence,[10],142
same,Percent positive,[11],94.2%
same,Median fluorescence,[12],44
same,Median fluorescence,[13],46.2
same,Median fluorescence,[14],26.4
same,Percent positive,[15],91.2%
same,MFI,[16],795
same,MFI,[17],237
same,Percent positive,[18],99.5%
B4,Kd,CD74 [2],0.77 nM
same,MFI Ratio hLL1:bkgd,CD74 [19],36.7
same,MFI Ratio hLL1:bkgd,CD74 [20],28.6
same,MFI Ratio hLL1:bkgd,CD74 [21],28.8
same,MFI Ratio hLL1:bkgd,CD74 [22],1.6
same,MFI Ratio hLL1:bkgd,CD74 [23],49.6
same,MFI Ratio hLL1:bkgd,CD74 [24],30.8
same,MFI Ratio hLL1:bkgd,CD74 [25],19.6
same,MFI Ratio hLL1:bkgd,CD74 [26],2.1
same,MFI Ratio hLL1:bkgd,CD74 [27],31.2
same,MFI Ratio hLL1:bkgd,CD74 [28],1.5
same,MFI Ratio hLL1:bkgd,CD74 [29],5.3
same,MFI Ratio hLL1:bkgd,CD74 [30],28.5
same,MFI Ratio hLL1:bkgd,CD74 [31],1.8
same,MFI Ratio hLL1:bkgd,CD74 [32],1.3
